Assay results reported in patent US20120316071A1 (published 2012).
Substitutions are numbered along the chain they refer to. Names and notes keep the numbering of the source.

T1: rHuman Erythropoietin R/Fc Chimera, CF (R&D Systems Cat#963-ER) (human, UniProt P19235 25-250)
T1 construct: Bought reagent; also called EPO R; EPO R/Fc; Fc part of the bought chimera not given
T1 sequence (looked up): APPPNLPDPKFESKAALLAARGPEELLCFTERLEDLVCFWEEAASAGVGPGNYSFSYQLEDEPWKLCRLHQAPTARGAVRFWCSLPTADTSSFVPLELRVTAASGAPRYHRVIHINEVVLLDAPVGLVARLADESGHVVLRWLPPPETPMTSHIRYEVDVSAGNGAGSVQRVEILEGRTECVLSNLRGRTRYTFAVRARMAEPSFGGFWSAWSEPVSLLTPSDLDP

B1: Fab VH3-23_IGHD2-21*01>3_IGHJ6*01 H100E/S108P/Y113G Y114I & V2-13_IGLJ2*01 (Fab, V domains shown)
VH: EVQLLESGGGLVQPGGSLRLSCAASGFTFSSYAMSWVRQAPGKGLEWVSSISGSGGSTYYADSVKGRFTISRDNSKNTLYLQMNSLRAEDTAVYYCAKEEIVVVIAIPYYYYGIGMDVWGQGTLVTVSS
VL: SSELTQDPAVSVALGQTVRITCQGDSLRSYYASWYQQKPGQAPVLVIYGKNNRPSGIPDRFSGSSSGNTASLTITGAQAEDEADYYCNSRDSSGNHLVVFGGGTKLTVL
notes: Tested as Fab made in E. coli (VH-CH1 with His and Flag tags; lambda CL); also called EPG Y114I
B2: Fab VH3-23_IGHD2-21*01>3_IGHJ6*01 H100E/S108P/Y113G Y114S & V2-13_IGLJ2*01 (Fab, V domains shown)
VH: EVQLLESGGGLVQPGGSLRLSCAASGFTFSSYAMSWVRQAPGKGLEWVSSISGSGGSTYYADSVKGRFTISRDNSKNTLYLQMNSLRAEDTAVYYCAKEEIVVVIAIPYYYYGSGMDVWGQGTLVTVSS
VL: B1 VL
notes: Tested as Fab made in E. coli (VH-CH1 with His and Flag tags; lambda CL); also called EPG Y114S
B3: Fab VH3-23_IGHD2-21*01>3_IGHJ6*01 H100E/S108P/Y113G Y114W & V2-13_IGLJ2*01 (Fab, V domains shown)
VH: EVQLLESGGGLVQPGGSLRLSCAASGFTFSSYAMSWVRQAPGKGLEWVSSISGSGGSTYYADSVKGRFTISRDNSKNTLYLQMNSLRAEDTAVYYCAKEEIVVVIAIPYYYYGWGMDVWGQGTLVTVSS
VL: B1 VL
notes: Tested as Fab made in E. coli (VH-CH1 with His and Flag tags; lambda CL); also called EPG Y114W
B4: Fab VH3-23_IGHD2-21*01>3_IGHJ6*01 H100E/S108P/Y113G Y114E & V2-13_IGLJ2*01 (Fab, V domains shown)
VH: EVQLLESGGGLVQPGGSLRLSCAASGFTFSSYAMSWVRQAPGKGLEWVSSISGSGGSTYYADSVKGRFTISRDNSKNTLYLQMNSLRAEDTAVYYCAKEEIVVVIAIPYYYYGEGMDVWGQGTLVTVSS
VL: B1 VL
notes: Tested as Fab made in E. coli (VH-CH1 with His and Flag tags; lambda CL); also called EPG Y114E
B5: Fab VH3-23_IGHD2-21*01>3_IGHJ6*01 H100E/S108P/Y113G Y112G & V2-13_IGLJ2*01 (Fab, V domains shown)
VH: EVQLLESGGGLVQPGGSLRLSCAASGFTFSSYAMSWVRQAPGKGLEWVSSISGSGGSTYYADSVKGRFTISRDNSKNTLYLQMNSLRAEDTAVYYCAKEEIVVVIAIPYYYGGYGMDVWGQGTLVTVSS
VL: B1 VL
notes: Tested as Fab made in E. coli (VH-CH1 with His and Flag tags; lambda CL); also called EPG Y112G
B6: Fab VH3-23_IGHD2-21*01>3_IGHJ6*01 H100E/S108P/Y113G Y114N & V2-13_IGLJ2*01 (Fab, V domains shown)
VH: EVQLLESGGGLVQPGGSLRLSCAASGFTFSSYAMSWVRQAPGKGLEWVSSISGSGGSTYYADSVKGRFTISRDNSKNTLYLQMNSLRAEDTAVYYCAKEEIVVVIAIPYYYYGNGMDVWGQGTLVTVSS
VL: B1 VL
notes: Tested as Fab made in E. coli (VH-CH1 with His and Flag tags; lambda CL); also called EPG Y114N
B7: Fab VH1-46_IGHD6-6*01_IGHJ1*01 & L6_IGKJ1*01 (Fab, V domains shown)
VH: QVQLVQSGAEVKKPGASVKVSCKASGYTFTSYYMHWVRQAPGQGLEWMGIINPSGGSTSYAQKFQGRVTMTRDTSTSTVYMELSSLRSEDTAVYYCAREEYSSSSAEYFQHWGQGTLVTVSS
VL: not shown
notes: Germline Fab made in E. coli: VH in Plasmid A (CH1, His6 and Flag tags), kappa VL in Plasmid C (kappa CL); also called parental; wildtype
B8: Fab VH1-46_IGHD6-6*01_IGHJ1*01 S103A & L6_IGKJ1*01 (Fab, V domains shown)
VH: B7 VH with S103A
VL: not shown
notes: Heavy chain CDR3 alanine mutant of the parental Fab; Fab format as the parent (CH1 with His6/Flag tags, kappa CL)
B9: Fab VH1-46_IGHD6-6*01_IGHJ1*01 S105A & L6_IGKJ1*01 (Fab, V domains shown)
VH: B7 VH with S105A
VL: not shown
notes: as for B8
B10: Fab VH1-46_IGHD6-6*01_IGHJ1*01 S102A & L6_IGKJ1*01 (Fab, V domains shown)
VH: B7 VH with S102A
VL: not shown
notes: as for B8
B11: Fab VH1-46_IGHD6-6*01_IGHJ1*01 S104A & L6_IGKJ1*01 (Fab, V domains shown)
VH: B7 VH with S104A
VL: not shown
notes: as for B8
B12: Fab VH1-46_IGHD6-6*01_IGHJ1*01 H111A & L6_IGKJ1*01 (Fab, V domains shown)
VH: B7 VH with H111A
VL: not shown
notes: as for B8
B13: Fab VH1-46_IGHD6-6*01_IGHJ1*01 E100A & L6_IGKJ1*01 (Fab, V domains shown)
VH: B7 VH with E100A
VL: not shown
notes: as for B8

biological target: T2, rHuman ErbB2/Fc Chimera, CF (R&D Systems Cat#1129-ER) (human, UniProt P04626 23-652); assay: ECL (MSD) multispot binding assay, antigen spotted on plate, 20 nM Fab;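 further: purified Fab incubated 1 h at 20 °C on antigen-spotted plate, bound Fab revealed with TAG detection antibody, ECL read, antigen signal divided by same-well blank, ratio ≥4 counted as hit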
T2 construct: Bought reagent; also called human epidermal growth factor 2 receptor; Fc part of the bought chimera not given

ECL multispot value | Binder
11.4 | B1
8.7 | B2
9.3 | B3
7.4 | B4
1.4 | B5

biological target: T3, rHuman EGF R/Fc Chimera, CF (R&D Systems Cat#344-ER) (human, UniProt P00533 25-645); assay: as above
T3 construct: Bought reagent; also called epidermal growth factor receptor; Fc part of the bought chimera not given

ECL multispot value | Binder
7.1 | B1
5 | B2
6.6 | B3
6.8 | B4
2.6 | B6
1.7 | B5

biological target: T4, rHuman Notch-1/Fc Chimera, CF (R&D Systems Cat#3647-TK) (human, UniProt P46531 19-526); assay: as above
T4 construct: Bought reagent; Fc part of the bought chimera not given

ECL multispot value | Binder
2.6 | B1
2.9 | B2
2.2 | B3
2 | B6
2.1 | B5

biological target: T5, rHuman CD44/Fc Chimera, CF (R&D Systems Cat#3660-CD) (human, UniProt P16070 21-220); assay: as above
T5 construct: Bought reagent; Fc part of the bought chimera not given

ECL multispot value | Binder
1.8 | B1
1.4 | B2
1.6 | B3
1.5 | B4
1.2 | B6
1.2 | B5

biological target: T6, rHuman IGF-1 sR, CF (R&D Systems Cat#391-GR) (human, UniProt P08069 31-932); assay: as above
T6 construct: Bought soluble receptor; also called insulin-like growth factor-1 soluble receptor

ECL multispot value | Binder
1.4 | B1
1.3 | B2
1.1 | B3
1.5 | B4
1.2 | B6
1 | B5

biological target: T7, rHuman P-Cadherin/Fc Chimera, CF (R&D Systems Cat#861-PC) (human, UniProt P22223 108-654); assay: as above
T7 construct: Bought reagent; Fc part of the bought chimera not given

ECL multispot value | Binder
22.6 | B1
15.8 | B2
16.7 | B3
13.9 | B4
5.9 | B6
2.3 | B5

biological target: T1, rHuman Erythropoietin R/Fc Chimera, CF …; assay: as above

ECL multispot value | Binder
162 | B1
68.5 | B2
69.2 | B4
35 | B6
7.9 | B5

biological target: T8, Recombinant Human DLL4 (R&D Systems Cat#1506-D4/CF) (human, UniProt Q9NR61 27-524); assay: as above
T8 construct: Bought recombinant protein; also called delta-like protein 4; rHuman DLL4

ECL multispot value | Binder
2.4 | B1
2.2 | B2
1.9 | B3
2.2 | B4
1.6 | B6
1.3 | B5

biological target: T9, Recombinant Human DLL4 (R&D Systems Cat#1506-D4/CF) (human, UniProt Q9NR61 27-529); assay: surface plasmon resonance, Fab against recombinant human DLL4; standard deviation in parentheses
T9 construct: Bought recombinant protein; also called rHuman DLL4; delta-like protein 4

Kd [nM] | koff [s⁻¹] | kon [M⁻¹ s⁻¹] | Binder
730 | 0.101 | 163000 | B7

biological target: T9, Recombinant Human DLL4 (R&D Systems …); assay: 96-well plate ECL (MSD) assay, DLL4 coated on plate, Fab at 0.04 µM; ECL signal on DLL4 over signal on blank well

Signal/Noise | Binder
3.1 | B7
3.5 | B8
0.8 | B9
5.6 | B10
1.3 | B11
2.4 | B12
0.9 | B13
